From paper PMC8477213 come the findings set out here.

Where a chain is given by its changes, count along the chain named. Like-named read-outs stand apart in the source and are kept apart here.

Data set [1] concerns the target T1, Tnp26 WT (IS26 (bacterial insertion sequence; …, UniProt A0A2K9V0L7 1-234, G117R).
T1 sequence: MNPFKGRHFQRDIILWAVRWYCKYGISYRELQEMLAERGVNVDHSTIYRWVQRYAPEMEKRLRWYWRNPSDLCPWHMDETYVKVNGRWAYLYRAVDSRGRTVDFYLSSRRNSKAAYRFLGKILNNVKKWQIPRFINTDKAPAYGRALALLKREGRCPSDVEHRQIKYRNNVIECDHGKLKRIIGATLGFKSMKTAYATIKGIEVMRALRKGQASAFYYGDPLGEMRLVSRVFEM
Briefly: EMSA. Background: In EMSA bound probe runs differently from free probe, usually more slowly.

Data set [2] has as its target T1, Tnp26 WT. Briefly: MST.
The target of a further data set is T2, Tnp26 W50A (IS26 (bacterial insertion sequence; …, UniProt A0A2K9V0L7 1-234, W50A;G117R).
T2 sequence: T1 sequence with W50A
Briefly: EMSA.

For another data set, the target named is T3, Tnp26 F4A (IS26 (bacterial insertion sequence; …, UniProt A0A2K9V0L7 1-234, F4A;G117R).
T3 sequence: T1 sequence with F4A
Briefly: EMSA.

The target of the next data set is T4, Tnp26 F9A (IS26 (bacterial insertion sequence; …, UniProt A0A2K9V0L7 1-234, F9A;G117R).
T4 sequence: T1 sequence with F9A
Briefly: EMSA.

A further data set addresses T5, Tnp26 R49A (IS26 (bacterial insertion sequence; …, UniProt A0A2K9V0L7 1-234, R49A;G117R).
T5 sequence: T1 sequence with R49A
The experiment in a line: EMSA.

For data set [3], the target named is T1, Tnp26 WT. Briefly: EMSA. This is another data set of the same source.
In data set [4] the target is T6, Tnp26 1-56 (IS26 (bacterial insertion sequence; …, UniProt A0A2K9V0L7 1-56).
T6 sequence: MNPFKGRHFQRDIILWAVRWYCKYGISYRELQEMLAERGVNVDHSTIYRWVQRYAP
The experiment in a line: EMSA.

Data set [5] concerns the target T6, Tnp26 1-56. Briefly: EMSA. The source holds these as a separate data set.
The target in another data set is T7, Tnp26 Y54A (IS26 (bacterial insertion sequence; …, UniProt A0A2K9V0L7 1-234, Y54A;G117R).
T7 sequence: T1 sequence with Y54A
Briefly: MST.

B1: TIRR 25mer (dsDNA)
DNA 1: TCAGATCGATGGCACTGTTGCAAAG
DNA 2: CTTTGCAACAGTGCCATCGATCTGA
Regarding B1, the binding result with Tnp26 WT [1] is reported as “no binding”.

B2: TIRR 50mer (dsDNA)
DNA 1: TCAGATCGATGGCACTGTTGCAAAGTTAGCGATGAGGCAGCCTTTTGTCT
DNA 2: AGACAAAAGGCTGCCTCATCGCTAACTTTGCAACAGTGCCATCGATCTGA
For orientation: Kd means the free concentration of one partner at which half of the binding sites on the other are occupied at equilibrium, for simple one-to-one binding. A high value points to a looser complex. B2: the Kd with Tnp26 WT [2] came to 394 nM. For the same molecule, the binding result in the data set with Tnp26 W50A, in the data set with Tnp26 F4A, with Tnp26 F9A and with Tnp26 R49A was “no binding” each time.

B3: TIRR 10G>T (dsDNA)
DNA 1: B2 DNA 1 with G20T
DNA 2: B2 DNA 2 with C31A
As for B3, the Kd in the data set with Tnp26 WT [2] came out at 872 nM.

B4: TIRR 7G>T (dsDNA)
DNA 1: B2 DNA 1 with G17T
DNA 2: B2 DNA 2 with C34A
B4: the binding result in the data set with Tnp26 WT [3] and with Tnp26 1-56 [4] was “no binding” each time.

B5: TIRR 1G>T 2G>T (dsDNA)
DNA 1: B2 DNA 1 with G11T, G12T
DNA 2: B2 DNA 2 with C39A, C40A
The molecule B5 returned a Kd with Tnp26 WT [2] of 240 nM.

B6: Scrambled TIRR (dsDNA)
DNA 1: TTCGTGACTACATCGATCTAGGCTAGCTAGTCAGCTGATCGACTAGCGAT
DNA 2: ATCGCTAGTCGATCAGCTGACTAGCTAGCCTAGATCGATGTAGTCACGAA
In the case of B6, the binding result with Tnp26 1-56 [5], with Tnp26 W50A, in the data set with Tnp26 F4A, with Tnp26 F9A, with Tnp26 WT [3] and with Tnp26 R49A was “no binding” in each case.

B7: TIRL 50mer (dsDNA)
DNA 1: TCAGATCGATGGCACTGTTGCAAATAGTCGGTGGTGATAAACTTATCATC
DNA 2: GATGATAAGTTTATCACCACCGACTATTTGCAACAGTGCCATCGATCTGA
In the data set with Tnp26 Y54A, B7 had a Kd of 802 nM. Besides, the binding result in the data set with Tnp26 W50A, in the data set with Tnp26 F4A, in the data set with Tnp26 F9A and in the data set with Tnp26 R49A was “no binding” each time.
